Assay results reported in US12616711B2, “Therapeutic dendrimer” (Starpharma Pty Ltd, priority 2019, dated 2026).

How the values were obtained:
[1] = test system: A549 cells; assay: alamarBlue viability assay, GI50; format: cell-based, human; settings: 72 h, given in μM Gemcitabine
Method: (§1) A study was carried out to determine the ability of example dendrimers to inhibit growth of cancer cell lines using an alamarBlue viability assay (Thermo Fisher, DAL1025).
(§2) The cytotoxicity of compounds toward MDA-MB-231, A549, H460, BxPC3 and CAPAN-1 cells were evaluated for viability. Cells were seeded at a density of 1.2-5×10^3 cells, dependent on cell growth rate, in 96 well plates and incubated overnight. Cells were then treated with serial dilutions of test compositions for 72 h (MDA-MB-231, A549 and H460 lines) or 144 h (BxPC3 and CAPAN-1 lines). For cell viability analysis, 10% media volume of alamar Blue was added during the final 6-8 h of incubation. Reduction of alamarBlue in living cells yields a red fluorescent metabolite that can be read on a plate reader (560 nm excitation/610 nm emission.). Cell viability and subsequent GI50 values were was determined from the blank corrected dose-response curves, with 4-parameter nonlinear curve fit, in GraphPad Prism.

[2] = test system: CAPAN-1 cells; assay: alamarBlue viability assay, GI50; format: cell-based, human; settings: 144 h, given in μM Gemcitabine
Method: as §1, §2

[3] = Plasma release study; format: in vitro ADME; settings: 37° C.
Method: The plasma was placed in a CO2 incubator at 3% CO2 at 42% relative humidity to reach a pH of 7.4.
Gemcitabine HCl (28.5 mg) was dissolved in Milli Q water and the resulting stock solution transferred to a 5 mL volumetric flask and diluted to provide working standard solutions.
The plasma release study was conducted by adding 1 mL of plasma (centrifuged and filtered) to 0.2 mL of dendrimer solution (approximately 2 mg/mL gemcitabine equivalent in miliQ water) for example dendrimers and a comparator. The mixtures were vortexed (30 sec) then incubated at 37° C. 5% CO2. At various timepoints aliquots (0.1 mL) were removed and added to ACN (0.2 mL). The resulting mixtures were vortexed (30 s), centrifuged (10 min, 4° C.), filtered and analysed by HPLC (C8 Xbridge, 3×100 mm, […], 0.4 mL/min., gradient: 5% ACN/H2O) (0-1 min), 5-80% ACN (1-7 min), 80% ACN (7-12 min), 80-5% ACN (12-13 min), 5% ACN (13-15 min), 100 mM ammonium formate buffer, column temperature 50° C., sample tray 4° C., 260 nm.

[4] = test system: CAPAN-1 tumour xenografts; assay: CAPAN-1 mouse xenograft, two conjugates (Example 14); format: in vivo; settings: 3 at 6 mg/kg weekly, 6 at 5 mg/kg weekly, Gemcitabine 120 mg/kg twice weekly, 3 weeks i.v.
Method: A CAPAN-1 (human pancreatic adenocarcinoma cell line) mouse xenograft pancreatic cancer model was used to assess the anti-tumour efficacy properties of 3 and 6. NSG (NOD-SCID Interleukin-2 receptor gamma chain null) mice were inoculated and tumours sized as described above. On day 24 after implantation, mice with similar sized tumours (mean tumour volume 100 mm^3) were randomised into four groups of 10 animals for each tumour type. Gemcitabine, 3 and 6 were prepared as described above.
Gemcitabine was administered twice weekly and dendrimers were administered weekly for 3 weeks via tail vein i.v. injection, at 0.1 ml/10 g body weight.

[5] = Gemcitabine release from dendrimers in PBS; format: physicochemical; settings: PBS pH 7.4, 37° C.
Method: (§3) A study was carried out to determine the rate of gemcitabine release from dendrimer compounds in PBS and citrate buffer. Gemcitabine-conjugated dendrimers of the present disclosure, and a comparative example dendrimer, were each dissolved in PBS Buffer (2 mL, 10 mM, pH 7.4) or Citrate Buffer (2 mL, 0.1 M, pH 4.5) and held at 37° C. Samples were then analysed by injecting 5 μL of the solution on HPLC. At various time points, samples were analysed by HPLC. HPLC (C8 XBridge, 3×100 mm), gradient: 5% ACN/H2O (0-1 min), 5-80% ACN (1-7 min), 80% ACN (7-12 min), 80-5% ACN (12-13 min), 5% ACN (13-15 min), 243 nm, 10 mM ammonium formate buffer, 0.4 mL/min.

[6] = Gemcitabine release from dendrimers in citrate buffer; format: physicochemical; settings: Citrate Buffer pH 4.5, 37° C.
Method: as §3

[7] = test system: A549 tumour xenografts; assay: A549 lung adenocarcinoma mouse xenograft (Example 15); format: in vivo; settings: 3 at 6 mg/kg weekly, Gemcitabine 120 mg/kg twice weekly, 3 weeks i.v.
Method: A A549 (human adenocarcinomic human alveolar basal epithelial) cell line was used to assess the anti-tumour efficacy properties of 3. NSG mice were inoculated and tumours sized as described above. On day 30 after implantation, mice with similar sized tumours (mean tumour volume 100 mm^3) were randomised into four groups of 10 animals for each tumour type. Gemcitabine and 3 were prepared as described above.
Gemcitabine was administered twice weekly and dendrimer was administered weekly for 3 weeks via tail vein i.v. injection, at 0.1 ml/10 g body weight.

[8] = test system: H460 cells; assay: alamarBlue viability assay, GI50; format: cell-based; settings: 72 h, given in μM Gemcitabine
Method: as §1, §2

[9] = test system: BxPC3 cells; assay: alamarBlue viability assay, GI50; format: cell-based; settings: BxPC-3; 144 h; given in μM Gemcitabine
Method: as §1, §2

## [BHA Lys][Lys]30[Lys]32 [Compound 3, [BHA Lys][Lys]30[Lys]32 [(α-NH-TDA-Gemcitabine)32 (ε-NHPEG˜2100)32]]
[1]
  GI50: 0.05 µM
[2]
  GI50: 0.008 µM
[3]; 0 h
  Human Plasma % release: 1.81%
[3]; 2 h
  Human Plasma % release: 3.73%
[3]; 4 h
  Human Plasma % release: 6.31%
[3]; 6 h
  Human Plasma % release: 17.74%
[3]; 24 h
  Human Plasma % release: 34.83%
[3]; 30 h
  Human Plasma % release: 37.86%
[4]
  anti-tumour efficacy compared to other groups (FIG. 7): significantly more effective than Gemcitabine or 6
[5]; 0 h
  % Gemcitabine released in PBS: 0%
[5]; 0.08 h
  % Gemcitabine released in PBS: 3.95%
[5]; 2 h
  % Gemcitabine released in PBS: 11.23%
[5]; 4 h
  % Gemcitabine released in PBS: 16.6%
[5]; 6 h
  % Gemcitabine released in PBS: 21.99%
[5]; 8 h
  % Gemcitabine released in PBS: 25.64%
[5]; 10 h
  % Gemcitabine released in PBS: 30.03%
[5]; 12 h
  % Gemcitabine released in PBS: 33.17%
[5]; 24 h
  % Gemcitabine released in PBS: 46.36%
[5]; 26 h
  % Gemcitabine released in PBS: 48.07%
[5]; 28 h
  % Gemcitabine released in PBS: 51.24%
[5]; 30 h
  % Gemcitabine released in PBS: 53.41%
[5]; 32 h
  % Gemcitabine released in PBS: 54.48%
[5]; 34 h
  % Gemcitabine released in PBS: 55.8%
[5]; 36 h
  % Gemcitabine released in PBS: 57.52%
[6]; 0 h
  % Gemcitabine released in citrate buffer: 0%
[6]; 0.08 h
  % Gemcitabine released in citrate buffer: 4.42%
[6]; 2 h
  % Gemcitabine released in citrate buffer: 5.21%
[6]; 4 h
  % Gemcitabine released in citrate buffer: 5.51%
[6]; 6 h
  % Gemcitabine released in citrate buffer: 4.92%
[6]; 8 h
  % Gemcitabine released in citrate buffer: 5.61%
[6]; 10 h
  % Gemcitabine released in citrate buffer: 5.39%
[6]; 12 h
  % Gemcitabine released in citrate buffer: 5.94%
[6]; 24 h
  % Gemcitabine released in citrate buffer: 7.53%
[6]; 26 h
  % Gemcitabine released in citrate buffer: 7.52%
[6]; 28 h
  % Gemcitabine released in citrate buffer: 7.75%
[6]; 30 h
  % Gemcitabine released in citrate buffer: 7.71%
[6]; 32 h
  % Gemcitabine released in citrate buffer: 7.48%
[6]; 34 h
  % Gemcitabine released in citrate buffer: 7.72%
[6]; 36 h
  % Gemcitabine released in citrate buffer: 8.19%
[7]
  anti-tumour efficacy compared to Gemcitabine (FIG. 8): more effective than Gemcitabine
[8]
  GI50: 0.077 µM
[9]
  GI50: 0.008 µM
